Patent publication US9096835B2, “DNA polymerase” (Medical Research Council, priority 2003, dated 2015)
Values joined by “and” are separate entries in the source; they are usually repeats but may differ in a detail not shown here. Equal entries are not always repeated. “Also recorded” adds a separate entry of the source.

Legend:
Format in all cases: biochemical
[1] = test system: primer-template duplex with matched or mismatched 3′ terminus; assay: Steady-state extension kinetics, gel-based assay; settings: incorporated base is dCTP
Description: Kinetic parameters were determined using a gel-based assay essentially as described (16). Primers 15, 16, 17 (3′ base=G, C, A respectively) were ^32P-labeled and annealed to one of template strands 18, 19, 20 (template base=C, G, A respectively) or 21 (template base C different context). Duplex substrates were used at 50 nM final concentration in 1× Taq buffer with various concentrations of enzyme and dNTP. Reactions were carried out at 60° C. for times whereby <20% of primer-template was utilized at the highest concentration of dNTP.
Extension and incorporation kinetics of M1 and M4 for a selection of mismatches were measured using a gel-based steady-state kinetic assay (Goodman) (Tables 1 & 2). M1 and M4 respectively extend a C•C mispair 390 and 75-fold more efficiently than wtTaq. […] The gain in extension efficiency derives predominantly from increased relative Vmax values for the mutant polymerases, while Km for nucleotide substrates remains largely unchanged. For most DNA polymerases the relative efficiency of extending a given mispair (f0ext) is similar to the relative efficiency of forming it (finc) (Goodman 1993, Goodman 1990, Washington 2001). Indeed, M1 and M4 respectively incorporate dCTP opposite template base C 206- and 29-fold more efficiently than wtTaq (Table 2).

[2] = test system: primer-template DNA substrates; assay: Processivity primer extension assay with and without trap DNA
Description: Processivity was measured using a primer extension assay the presence and absence of trap DNA. Termination probabilities were calculated according to the method of Kokoska et al.
Oligonucleotide primer 32 (5′-GCGGTGTAGAGACGAGTGCGGAG-3′) (SEQ ID NO: 117) was ^32P-labelled and annealed to the template 33 (5′-CTCTCACAAGCAGCCAGGCAAGCTCCGCACTCGTCTCTACACCGCTCCGC-3′ (SEQ ID NO: 118)) (at a primer/template ratio of molar 1/1.5). wtTaq (0.0025 nM; 0.025 nM; 0.25 nM), M1(0.05 nM; 0.5 nM; 5 nM), and M4 (0.05 nM; 0.5 nM; 5 nM) were preincubated with the primer-template DNA substrates (10 nM) in 10 mM Tris-HCl at pH 9.0, 5 mM MgCl2, 50 mM KCl, 0.1% Triton X 100 at 25° C. for 15 min. Reactions were initiated by addition of 100 μM dNTPs with or without trap DNA (1000-fold excess of unlabeled primer-templates). Reactions were performed at 60° C. for 2 min. […] Thus, in the presence of trap DNA, all DNA synthesis resulted from a single DNA binding event. Gel band intensities were calculated using a Phosphoimager and ImageQuant (both Molecular Dynamics) software. Percentage of polymerase molecules, which extended primers to the end of the template was calculated using the formula: In×100%/(I1+I2+ . . . +In), where In is the intensity of the band at position 22 or 23; I1, I2 . . . is the intensity of the band at position 1, 2 . . . . Termination probabilities (τ) were calculated according to the method of Kokoska et al^1, whereby t at a particular template position was calculated as the intensity of the band at this position divided by the sum of the intensity of this band and the band intensities of all longer products.

[3] = test system: primers with 3′ transversion mismatches; assay: Mismatch extension PCR assay; settings: G•A, C•C, G•G mismatched primers
Description: A PCR assay was used to screen and rank clones. Briefly, clones were normalized for activity in PCR with matched primers 3, 4 and activity with mismatched primers 1 and 2 (1 μM each) determined at minimal cycle number (15-25 cycles). Extension capability for different mismatches was determined by the same assay using mismatch primers 2 (C•C mismatch), 5 (A•A mismatch), 6 (G•G mismatch), 7 (G•A mismatch) with matched primer 3 or primer 1 (A•G mismatch) with matched primer 4. Incorporation of unnatural substrates in 50 cycle PCR was carried out using standard conditions and 50 μM […] dNTPs (Promega) or 50 μM FITC-12-dATP (Perkin-Elmer), Rhodamine-5-dUTP (Perkin-Elmer) or Biotin-16-dUTP (Roche) with equivalent amounts of the other 3 dNTPs (all 50 μM). Long PCR was carried out using a two-step cycling protocol as described (22) 94° C. for 2 minutes, followed by 20 cycles of (94° C. 15 sec, 68° C. 30 min) using 5 ng of phage λ DNA (New England Biolabs) template and either primers 9, 10, 11 with primer 12 or primer 13 with primers 10, 14.

[4] = test system: undamaged template; assay: Translesion replication assay, control; settings: gel-extension assay, 60° C.
Description: Template primers 22 (undamaged) or 23 (containing a synthetic abasic site) were synthesized by Lofstrand Laboratories (Gaithersburg, Md.). Template primer 24 (containing a single cis-syn thymine dimer), was synthesized as described (34). Primer 25 was ^32P-labeled and annealed to one of the three templates 22, 23, 24 (at a primer template ratio of molar 1:1.5) and extended in 40 mM Tris.HCl at pH 8.0, 5 mM MgCl2, 100 μM of each dNTP, 10 mM DTT, 250 μg/ml BSA, 2.5% glycerol, 10 nM primer-template DNA and 0.1 Unit of polymerase at 60° C. for various times.

[5] = 3′-terminal base pair C · G (template base: 3′ primer base), matched

B1: M4: Taq mutant D58G, R74P, A109T, L245R, R343G, G370D, E520G, N583S, E694K, A743P; SEQ ID NO 2 (protein)
chain: MRGMLPLYEPKGRVLLVDGHHLAYRTFHALKGLTTSRGEPVQAVYGFAKSLLKALKEGGDAVIVVFDAKAPSFPHEAYGGYKAGRAPTPEDFPRQLALIKELVDLLGLTRLEVPGYEADDVLASLAKKAEKEGYEVRILTADKDLYQLLSDRIHVLHPEGYLITPAWLWEKYGLRPDQWADYRALTGDESDNLPGVKGIGEKTARKLLEEWGSLEALLKNLDRLKPAIREKILAHMDDLKLSWDRAKVRTDLPLEVDFAKRREPDRERLRAFLERLEFGSLLHEFGLLESPKALEEAPWPPPEGAFVGFVLSRKEPMWADLLALAAARGGRVHRAPEPYKALGDLKEARGLLAKDLSVLALREGLGLPPDDDPMLLAYLLDPSNTTPEGVARRYGGEWTEEAGERAALSERLFANLWGRLEGEERLLWLYREVERPLSAVLAHMEATGVRLDVAYLRALSLEVAEEIARLEAEVFRLAGHPFNLNSRDQLERVLFDELGLPAIGKTEKTGKRSTSAAVLGALREAHPIVEKILQYRELTKLKSTYIDPLPDLIHPRTGRLHTRFNQTATATGRLSSSDPNLQSIPVRTPLGQRIRRAFIAEEGWLLVALDYSQIELRVLAHLSGDENLIRVFQEGRDIHTETASWMFGVPREAVDPLMRRAAKTINFGVLYGMSAHRLSQELAIPYEEAQAFIKRYFQSFPKVRAWIEKTLEEGRRRGYVETLFGRRRYVPDLEARVKSVREPAERMAFNMPVQGTAADLMKLAMVKLFPRLEEMGARMLLQVHDELVLEAPKERAEAVARLAKEVMEGVYPLAVPLEVEVGIGEDWLSAKE
modifications: Mutant Thermus aquaticus DNA polymerase
Vmax ([1]; 3′-terminal base pair A · A (template base: 3′ primer base)): 8.5 % Min^−1 | Km ([1]; 3′-terminal base pair A · A): 32.9 µM | Ratio of fext, fext (mutant polymerase)/fext (wtTaq) ([1]; 3′-terminal base pair A · A): 5.7 | fext, f (mismatched 3′terminus)/f (matched terminus) ([1]; 3′-terminal base pair A · A): 3.8 × 10^−6 | Vmax ([1]; 3′-terminal base pair A · G (template base: 3′ primer base)): 50.0 % Min^−1 | Km ([1]; 3′-terminal base pair A · G): 259 µM | Ratio of fext, fext (mutant polymerase)/fext (wtTaq) ([1]; 3′-terminal base pair A · G): 7.0 | fext, f (mismatched 3′terminus)/f (matched terminus) ([1]; 3′-terminal base pair A · G): 1.5 × 10^−6 | Vmax ([1]; 3′-terminal base pair C · C (template base: 3′ primer base)): 11.1 % Min^−1 | Km ([1]; 3′-terminal base pair C · C): 36.6 µM | Ratio of fext, fext (mutant polymerase)/fext (wtTaq) ([1]; 3′-terminal base pair C · C): 75 and 75.3 | fext, f (mismatched 3′terminus)/f (matched terminus) ([1]; 3′-terminal base pair C · C): 4.5 × 10^−6 | Km [1, 5]: 0.012 µM | Vmax [1, 5]: 817.0 % Min^−1 | Vmax ([1]; 3′-terminal base pair G · A (template base: 3′ primer base)): 7.5 % Min^−1 | Km ([1]; 3′-terminal base pair G · A): 29 µM | Ratio of fext, fext (mutant polymerase)/fext (wtTaq) ([1]; 3′-terminal base pair G · A): 7.0 | fext, f (mismatched 3′terminus)/f (matched terminus) ([1]; 3′-terminal base pair G · A): 3.8 × 10^−6 | Vmax ([1]; 3′-terminal base pair G · G (template base: 3′ primer base)): 70.6 % Min^−1 | Km ([1]; 3′-terminal base pair G · G): 107 µM | Ratio of fext, fext (mutant polymerase)/fext (wtTaq) ([1]; 3′-terminal base pair G · G): 7.6 | fext, f (mismatched 3′terminus)/f (matched terminus) ([1]; 3′-terminal base pair G · G): 9.7 × 10^−6 | processivity compared with wtTaq ([2]; even at the lowest enzyme concentrations): processivity equal (or higher) than wtTaq | bound polymerase that extended primers to the end of the template ([2]; in the presence of trap DNA (single DNA binding event)): 15% | termination probability ([2]; positions 2 through 5): 13-35% | termination probability ([2]; positions 6 and 7): 2-4% | extension of 3′ transversion mismatches in PCR [3]: greatly increased ability to extend; also recorded: generate amplification products | primer extension on undamaged template [4]: efficiently and rapidly extended primers to the end of the template
